Data: patent US12208130B2, “Treatment of women affected with polycystic ovary syndrome” (INSTITUT NATIONAL DE LA SANTE ET DE LA RECHERCHE MEDICALE …, priority 2017, dated 2025)
Where a SMILES comes first, the peptide text is derived from it. [ ]: non-standard residue; d: D form. dPhe(4-Cl) = N[C@H](Cc1ccc(Cl)cc1)C(=O)O; d2Nal = N[C@H](Cc1ccc2ccccc2c1)C(=O)O; dCit = NC(=O)NCCC[C@@H](N)C(=O)O; d3Pal = N[C@H](Cc1cccnc1)C(=O)O

Tested on: C57BL6/J (B6) dams and their female offspring
Assay: Prenatal treatment of pregnant dams: phenotype, estrous cycle, ovarian histology and fertility of female offspring
Assay type: in vivo, mouse
Procedure: FIGS. 2A-2E-3. Prenatal AMH treatment disrupts estrous cyclicity, ovarian morphology and fertility in adult offspring. (FIG. 2A) Schematic of experimental design whereby pregnant dams were subjected to different treatments by intraperitoneal (i.p.) injections during the late gestational period (embryonic days (E) 16.5-E18.5). Pregnant dams were treated with i.p. injections of four different treatments, which are designated as the following: Control, PBS, 0.01M, pH 7.4 (n=14); Prenatal anti-Müillerian hormone-treated (PAMH), PBS containing human recombinant AMH (n=19); Prenatal AMH+Cetrorelix (PAMH+GnRH antag), PBS containing both human recombinant AMH and cetrorelix acetate (n=10); Cetrorelix-treated (GnRH antag), PBS containing cetrorelix acetate (n=4). (FIG. 2B) Quantitative analysis of ovarian cyclicity in adult (P60-P90) offspring mice (control, n=14; PAMH, n=19; PAMH+GnRH antag, n=10; GnRH antag, n=4). Vaginal cytology was assessed for 16 days. […] Bars from left to right in each group: Control, PAMH, PAMH+GnRH antag, GnRH antag. (FIGS. 2C-1, 2C-2, 2C-3) Representation of estrous cyclicity in one female mouse of each of the four treatments during 16 consecutive days (4-cycles). (FIGS. 2D-1, 2D-2, 2D-3) Quantitative analysis of corpora lutea, late antral follicles and atretic follicles in the ovaries of Control (n=7, age: P90) and PAMH mice (n=8, age: P90). Data are represented as mean±s.e.m (two-tailed Student's t-test; corpora lutea, t(13)=4.879, **P<0.001; late antral follicles, t(13)=4.637, **P<0.001; atretic follicles, t(13)=0.226, P=0.82). Data were combined from two independent experiments. In FIGS. 2D-1, 2D-2 and 2D-3: left bar: Control; right bar: PAMH.). (FIGS. 2E-1, 2E-2, 2E-3) Fertility tests of the adult offspring mice (P90). Bars from left to right in each FIGS. 2E-1, 2E-2 and 2E-3: Control, PAMH, PAMH+GnRH antag, GnRH antag Matings were performed for 90 days. Control females were paired with control males (n=7), PAMH females were paired with PAMH males (n=7), PAMH+GnRH antag females were paired with PAMH+GnRH antag males (n=6), and GnRH antag females were paired with GnRH antag males (n=4). […] Data are represented as mean±s.e.m. One-way ANOVA and Tukey's multiple comparison post hoc test: time to first litter, F(3,20)=14.73, ***P<0.0001; fertility index, F(3,20)=7.069, *P<0.05, **P<0.005; number of pups/litter, F(3,20)=30.71, ***P<0.0001.
FIGS. 8A-8D. Prenatal AMH treatment disrupts puberty onset and estrous cyclicity cyclicity but not body mass of the offspring. (FIGS. 8A, 8B, 8C, 8D) Parameters of pubertal onset and estrous cyclicity in female control (n=14), PAMH (n=17-19), PAMH+GnRH antag (n=10), and GnRH antag (n=4) animals. (FIG. 8A) Age of vaginal opening (VO) and (FIG. 8B) Age of first estrus were compared using a one-way ANOVA and Tukey's multiple comparison post hoc analyses, respectively: F (3, 43)=48.37, *** P<0.0001; F (3, 41)=112.6, *** P<0.0001. Bars from left to right in each FIGS. 8A, 8B: Control, PAMH, PAMH+GnRH antag, GnRH antag (FIG. 8C) Percentage (%) of completed estrous cycles over 16 days (4 cycles) was analyzed using a non-parametric Kruskal-Wallis test followed by a Dunn's multiple comparison post-hoc analysis: Kruskal-Wallis statistic=35.55, *P<0.05, **P<0.005, ***P<0.0001. Bars from left to right in each FIG. 8C: Control, PAMH, PAMH+GnRH antag, GnRH antag (FIG. 8D) Body mass (gr) was measured in female offspring at each post-natal age (P) until P60 and compared using a one-way ANOVA and Tukey's multiple comparison post hoc analyses for each age and treatment: P30, F (3, 43)=1.338, P=0.2747; P35, F (3, 43)=0.4268, P=0.7348; P40, F (3, 43)=0.4171, P=0.7416; P50, F (3, 27)=2.158, P=0.1162; P60, F (3, 27)=5.45, P=0.0046; * P<0.05, **, P<0.005. Asterisks represent significant differences (mean±s.e.m): *P<0.05, **P<0.005, ***, P<0.0001. Bars from left to right in FIG. 8D: Control, PAMH, PAMH+GnRH antag, GnRH antag. […]

[1] = dams i.p. AMH 0.12 mg/Kg/d + cetrorelix acetate 0.5 mg/Kg E16.5-E18.5, female offspring
[2] = dams i.p. 0.12 mg/Kg/d E16.5-E18.5, female offspring vs control

Molecule	estrous cyclicity and fertility (GnRH antagonist alone, dams i.p. 0.5 mg/Kg/d E16.5-E18.5, offspring)	longer ano-genital distance phenotype of PAMH offspring [1]	oligo-anovulation and subfertility (ovulatory and fertility defects) of PAMH offspring [1]	oligo-anovulation and subfertility (ovulatory and fertility defects) of PAMH offspring (dams i.p. AMH 0.12 mg/Kg/d + cetrorelix acetate 0.5 mg/Kg E16.5-E18.5, female offspring, listed as GnRH antagonist)	estrous cyclicity (dams i.p. 0.12 mg/Kg/d E16.5-E18.5, adult female offspring vs control)	ano-genital distance (dams i.p. 0.12 mg/Kg/d E16.5-E18.5, female offspring P30-P60 vs control)	body weight of offspring [2]	puberty onset (first estrus) [2]	vaginal opening [2]
CC(=O)N[C@H](Cc1ccc2ccccc2c1)C(=O)N[C@H](Cc1ccc(Cl)cc1)C(=O)N[C@H](Cc1cccnc1)C(=O)N[C@@H](CO)C(=O)N[C@@H](Cc1ccc(O)cc1)C(=O)N[C@H](CCCNC(N)=O)C(=O)N[C@@H](CC(C)C)C(=O)N[C@@H](CCCNC(=N)N)C(=O)N1CCC[C@H]1C(=O)N[C@H](C)C(N)=O [Cetrorelix acetate, Ac-D-2Nal-D-Phe(4-Cl)-D-3Pal-Ser-Tyr-D-Cit-Leu-Arg-Pro-D-Ala-NH2] (Ac-[d2Nal][dPhe(4-Cl)][d3Pal]SY[dCit]LRP[dA]-NH2)	no effect	completely rescued	totally prevented	prevented the appearance of the ovulatory and fertility defects					
proAMH: AMH proprotein (Origene Technologies, Cat # TP308397), injected prenatally 0.12 mg/Kg/d (protein, UniProt P03971 25-560, looked up, pro-form, AMH proprotein (Origene Technologies, Cat # TP308397), injected prenatally 0.12 mg/Kg/d) pro-form: LRAEEPAVGTSGLIFREDLDWPPGSPQEPLCLVALGGDSNGSSSPLRVVGALSAYEQAFLGAVQRARWGPRDLATFGVCNTGDRQAALPSLRRLGAWLRDPGGQRLVVLHLEEVTWEPTPSLRFQEPPPGGAGPPELALLVLYPGPGPEVTVTRAGLPGAQSLCPSRDTRYLVLAVDRPAGAWRGSGLALTLQPRGEDSRLSTARLQALLFGDDHRCFTRMTPALLLLPRSEPAPLPAHGQLDTVPFPPPRPSAELEESPPSADPFLETLTRLVRALRVPPARASAPRLALDPDALAGFPQGLVNLSDPAALERLLDGEEPLLLLLRPTAATTGDPAPLHDPTSAPWATALARRVAAELQAAAAELRSLPGLPPATAPLLARLLALCPGGPGGLGDPLRALLLLKALQGLRVEWRGRDPRGPGRAQRSAGATAADGPCALRELSVDLRAERSVLIPETYQANNCQGVCGWPQSDRNPRYGNHVVLLLKMQVRGAALARPPCCVPTAYAGKLLISLSEERISAHHVPNMVATECGCR					disrupted estrous cyclicity	significantly longer ano-genital distance	no difference in body weight	delayed puberty onset	delayed vaginal opening
